For one molecule, Kd results are on record in PMC5551698 (The Journal of Cell Biology, 2017).

The target in the test is His-CRMP-1 (human CRMP-1) (human, UniProt Q14194 1-572). Description: pull-down.
His-CRMP-1 (human CRMP-1), sequence (Q14194 whole entry): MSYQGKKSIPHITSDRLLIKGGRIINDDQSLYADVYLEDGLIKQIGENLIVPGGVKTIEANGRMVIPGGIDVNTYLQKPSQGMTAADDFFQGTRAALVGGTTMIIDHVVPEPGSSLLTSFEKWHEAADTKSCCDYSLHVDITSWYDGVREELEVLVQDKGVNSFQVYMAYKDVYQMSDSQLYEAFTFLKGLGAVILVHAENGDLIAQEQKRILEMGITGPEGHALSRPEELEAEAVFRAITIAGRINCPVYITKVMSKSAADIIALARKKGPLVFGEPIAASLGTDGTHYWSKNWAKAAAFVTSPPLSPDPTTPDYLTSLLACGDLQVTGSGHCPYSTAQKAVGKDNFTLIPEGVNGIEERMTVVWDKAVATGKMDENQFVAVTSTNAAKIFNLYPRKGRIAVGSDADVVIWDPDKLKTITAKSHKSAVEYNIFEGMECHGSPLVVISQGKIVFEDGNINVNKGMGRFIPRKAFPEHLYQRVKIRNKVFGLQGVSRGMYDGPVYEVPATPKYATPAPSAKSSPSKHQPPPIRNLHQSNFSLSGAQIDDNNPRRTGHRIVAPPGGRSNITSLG

B1: MBP-EVL (human EVL, full length) (natural protein, UniProt Q9UI08 1-416, looked up)
chain: MSEQSICQARASVMVYDDTSKKWVPIKPGQQGFSRINIYHNTASNTFRVVGVKLQDQQVVINYSIVKGLKYNQATPTFHQWRDARQVYGLNFASKEEATTFSNAMLFALNIMNSQEGGPSSQRQVQNGPSPDEMDIQRRQVMEQHQQQRQESLERRTSATGPILPPGHPSSAASAPVSCSGPPPPPPPPVPPPPTGATPPPPPPLPAGGAQGSSHDESSMSGLAAAIAGAKLRRVQRPEDASGGSSPSGTSKSDANRASSGGGGGGLMEEMNKLLAKRRKAASQSDKPAEKKEDESQMEDPSTSPSPGTRAASQPPNSSEAGRKPWERSNSVEKPVSSILSRTPSVAKSPEAKSPLQSQPHSRMKPAGSVNDMALDAFDLDRMKQEILEEVVRELHKVKEEIIDAIRQELSGISTT
For orientation: Kd means the constant that tells how readily two partners part at equilibrium. A high value points to lower affinity. B1 registered a Kd of 2000 nM.
